The record followed here is article PMC10754689.

Experiment in all cases: TPM
Data set [1] concerns LI Int ΔCC (Listeria innocua prophage (phage LI)). The following applies: 200 or 400 nM Int, 5 mM Mg2+, TPM (LI Int): 20 mM Tris-HCl pH 8.0, 150 mM KCl, 5% glycerol, 5 mM MgCl2, 5 mM DTT, 2 mg/mL BSA, 22°C, 30 min, φC31 Int at 20 nM, its buffer not in the ….
For data set [2], the system named is LI Int S10A (Listeria innocua prophage (phage LI)). The following applies: 5 mM Mg2+, TPM (LI Int): 20 mM Tris-HCl pH 8.0, 150 mM KCl, 5% glycerol, 5 mM MgCl2, 5 mM DTT, 2 mg/mL BSA, 22°C, 30 min, φC31 Int at 20 nM, its buffer not in the ….
Data set [3] relates to LI Int K362A (Listeria innocua prophage (phage LI)). The settings on record: 200 or 400 nM Int, 5 mM Mg2+, TPM (LI Int): 20 mM Tris-HCl pH 8.0, 150 mM KCl, 5% glycerol, 5 mM MgCl2, 5 mM DTT, 2 mg/mL BSA, 22°C, 30 min, φC31 Int at 20 nM, its buffer not in the ….
Data set [4] has as its system LI Int wt (Listeria innocua prophage (phage LI)). The following applies: 5 mM Mg2+, TPM (LI Int): 20 mM Tris-HCl pH 8.0, 150 mM KCl, 5% glycerol, 5 mM MgCl2, 5 mM DTT, 2 mg/mL BSA, 22°C, 30 min, φC31 Int at 20 nM, its buffer not in the ….
The subject of data set [5] is φC31 Int wt (Streptomyces coelicolor phage φC31). The following applies: TPM (LI Int): 20 mM Tris-HCl pH 8.0, 150 mM KCl, 5% glycerol, 5 mM MgCl2, 5 mM DTT, 2 mg/mL BSA, 22°C, 30 min, φC31 Int at 20 nM, its buffer not in the ….
Data set [6] concerns φC31 Int ΔCC (Streptomyces coelicolor phage φC31). The settings on record: TPM (LI Int): 20 mM Tris-HCl pH 8.0, 150 mM KCl, 5% glycerol, 5 mM MgCl2, 5 mM DTT, 2 mg/mL BSA, 22°C, 30 min, φC31 Int at 20 nM, its buffer not in the ….

In the case of LI attB-attP head-to-tail 1303 bp, the binding signal in data set [1] was found to be 17.8 % DNA bound; in data set [2] (100 nM Int), 76.4 % DNA bound; in data set [3] it was 54.9 % DNA bound; in data set [4] (100 nM Int), 81.1 % DNA bound.
On to LI attL-attR head-to-tail 1303 bp, for which the binding signal is 16.1 % DNA bound in data set [1] (no RDF); 51.7 % DNA bound in data set [2] (200 nM Int, no RDF); 20.5 % DNA bound in data set [3] (no RDF); 48.6 % DNA bound in data set [4] (200 nM Int, no RDF).
Turning to φC31 attB-attP head-to-tail 1303 bp, the binding signal in data set [5] (20 nM Int) was determined as 80.4 % DNA bound; in data set [6] (20 nM Int), 30.6 % DNA bound.
In the case of φC31 attL-attR head-to-tail 1303 bp, the values for the binding signal in data set [5] and in data set [6] were 19.9 % DNA bound and 21 % DNA bound, respectively.
